Test results reported in patent US20200031919A1 (SUZHOU KANOVA BIOPHARMACEUTICAL, published 2020).

Molecular target: T1, human IL-17A (human, UniProt Q16552 24-155)
T1 construct: Commercial recombinant protein; also called hIL-17A; CTLA-8
T1 sequence (looked up): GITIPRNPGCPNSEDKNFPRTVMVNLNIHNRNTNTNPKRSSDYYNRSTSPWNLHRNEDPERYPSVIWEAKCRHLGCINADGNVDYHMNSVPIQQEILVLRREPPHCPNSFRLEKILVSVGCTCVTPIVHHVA
Assay: SPR (Biacore T200), antibody captured by anti-human Fc, IL-17 as analyte
Procedure: Anti-human Fc gamma specific antibody (Jackson Immuno Research, Lot no. 124448, Code. 109-008-098) was immobilized onto the sensor chip using amine coupling method. Four antibodies secreted to the culture medium plus the parental antibody were injected and captured by anti-human Fc antibody via Fc (capture phase) individually. After equilibration, IL-17 was injected for 300 seconds (association phase) followed by the injection of running buffer for 1200s (dissociation phase). Responses of reference flow cell (flow cell 1) were subtracted from those of humanized antibodies flow cells during each cycle. The surface was regenerated before the injection of another humanized antibody. The process was repeated until all antibodies are analyzed. The off-rates of humanized antibodies were obtained from fitting the experimental data locally to 1:1 interaction model using the Biacore T200 evaluation software. The antibodies were ranked by their dissociation rate constants (off-rates, Kd). The binders that interact with IL-17 with similar affinity to parental antibody were selected.

B1: humanized anti-IL17A/F antibody VH1-1/VL2-1 (antibody, V domains shown)
VH: QFQLVQSGAEVKKPGASVKVSCKASGYTFTDYNLNWVRQAPGKGLEWMGVIHPDYGTTSYNQKFKDRVTMTVDTSTSTVYMELSSLRSEDTAVYYCVRYDYGDAMDYWGQGTLVTVSS
VL: DIVMTQTPLSSSVTLGQPASISCRSSQSLVHSNGNTYLHWLQQRPGQPPRLLIYKVSNRFSGVPDRFSGSGAGTDFTLKISRVEAEDVGVYYCSQSTHVPLTFGQGTKLEIK
notes: It was tested as a humanized IgG captured through its Fc by an anti-human Fc antibody
What does the source list for B1?
Kd: 0.84 nM; koff: 0.0018 s⁻¹; kon: 2.2e+06 M⁻¹ s⁻¹
